# *1 amine or outer side, *2 acyl side, *3 side chain or, on linkers, in order; H or OH if unused. The star is where a group is joined. C18 diacid = O=C(O)CCCCCCCCCCCCCCCCC(=O)*; γGlu = O=C(O)[C@H](CCC(=O)[*:2])N[*:1]
# What was measured:
# [1] = target: T1, human amylin-3(a) receptor (human, UniProt P30988 25-474; O60896 24-148); experiment: cell-based or functional assay
# T1 sequence (looked up) 1: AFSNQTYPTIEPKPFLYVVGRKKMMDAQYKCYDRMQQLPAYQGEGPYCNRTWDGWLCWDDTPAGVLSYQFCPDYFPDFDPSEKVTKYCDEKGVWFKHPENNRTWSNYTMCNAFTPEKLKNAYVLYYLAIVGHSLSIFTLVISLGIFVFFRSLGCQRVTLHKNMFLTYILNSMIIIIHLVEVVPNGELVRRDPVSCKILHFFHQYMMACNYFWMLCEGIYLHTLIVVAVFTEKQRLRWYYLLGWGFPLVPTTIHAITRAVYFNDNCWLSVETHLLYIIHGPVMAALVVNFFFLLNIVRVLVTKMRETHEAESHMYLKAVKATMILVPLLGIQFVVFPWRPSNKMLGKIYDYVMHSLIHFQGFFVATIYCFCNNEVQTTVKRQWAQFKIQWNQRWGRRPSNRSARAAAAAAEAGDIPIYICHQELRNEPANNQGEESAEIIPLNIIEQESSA
# T1 sequence (looked up) 2: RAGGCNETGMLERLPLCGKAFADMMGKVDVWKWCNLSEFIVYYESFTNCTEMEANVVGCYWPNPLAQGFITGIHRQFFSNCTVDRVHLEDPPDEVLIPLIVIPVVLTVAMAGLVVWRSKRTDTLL
# [2] = target: T2, human calcitonin receptor (a) (human, UniProt P30988 25-474); experiment: cell-based or functional assay
# T2 sequence (looked up): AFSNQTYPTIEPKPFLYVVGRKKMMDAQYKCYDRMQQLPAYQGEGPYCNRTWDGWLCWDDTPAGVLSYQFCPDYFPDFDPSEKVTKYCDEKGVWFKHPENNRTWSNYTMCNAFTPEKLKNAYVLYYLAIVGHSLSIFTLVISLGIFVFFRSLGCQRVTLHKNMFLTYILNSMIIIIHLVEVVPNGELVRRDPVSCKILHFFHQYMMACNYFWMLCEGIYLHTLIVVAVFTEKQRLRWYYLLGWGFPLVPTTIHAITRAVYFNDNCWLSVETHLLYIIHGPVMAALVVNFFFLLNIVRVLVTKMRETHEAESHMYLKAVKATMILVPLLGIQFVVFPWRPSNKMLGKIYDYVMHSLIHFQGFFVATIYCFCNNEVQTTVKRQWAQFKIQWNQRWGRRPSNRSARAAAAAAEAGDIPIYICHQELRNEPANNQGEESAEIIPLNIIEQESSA
Binder,"hAmyR3 potency, EC50 (pM); CRE-luciferase reporter in BHK cells [1]","hCalcR potency, EC50 (pM); CRE-luciferase reporter in BHK cells [2]"
{C18 diacid-γGlu}-ASHLSTLQTQRLAEFLHHFGPILPPTDVGSETP-NH2 (SMILES CC[C@H](C)[C@H](NC(=O)[C@@H]1CCCN1C(=O)CNC(=O)[C@H](Cc1ccccc1)NC(=O)[C@H](Cc1c[nH]cn1)NC(=O)[C@H](Cc1c[nH]cn1)NC(=O)[C@H](CC(C)C)NC(=O)[C@H](Cc1ccccc1)NC(=O)[C@H](CCC(=O)O)NC(=O)[C@H](C)NC(=O)[C@H](CC(C)C)NC(=O)[C@H](CCCNC(=N)N)NC(=O)[C@H](CCC(N)=O)NC(=O)[C@@H](NC(=O)[C@H](CCC(N)=O)NC(=O)[C@H](CC(C)C)NC(=O)[C@@H](NC(=O)[C@H](CO)NC(=O)[C@H](CC(C)C)NC(=O)[C@H](Cc1c[nH]cn1)NC(=O)[C@H](CO)NC(=O)[C@H](C)NC(=O)CC[C@H](NC(=O)CCCCCCCCCCCCCCCCC(=O)O)C(=O)O)[C@@H](C)O)[C@@H](C)O)C(=O)N[C@@H](CC(C)C)C(=O)N1CCC[C@H]1C(=O)N1CCC[C@H]1C(=O)N[C@H](C(=O)N[C@@H](CC(=O)O)C(=O)N[C@H](C(=O)NCC(=O)N[C@@H](CO)C(=O)N[C@@H](CCC(=O)O)C(=O)N[C@H](C(=O)N1CCC[C@H]1C(N)=O)[C@@H](C)O)C(C)C)[C@@H](C)O),1.6 pM,2.26 pM
{C18 diacid-γGlu}-ASHLSTLQTQRLAEFLHHSSDNFGPILPPTDVGSNTP-NH2 (SMILES CC[C@H](C)[C@H](NC(=O)[C@@H]1CCCN1C(=O)CNC(=O)[C@H](Cc1ccccc1)NC(=O)[C@H](CC(N)=O)NC(=O)[C@H](CC(=O)O)NC(=O)[C@H](CO)NC(=O)[C@H](CO)NC(=O)[C@H](Cc1c[nH]cn1)NC(=O)[C@H](Cc1c[nH]cn1)NC(=O)[C@H](CC(C)C)NC(=O)[C@H](Cc1ccccc1)NC(=O)[C@H](CCC(=O)O)NC(=O)[C@H](C)NC(=O)[C@H](CC(C)C)NC(=O)[C@H](CCCNC(=N)N)NC(=O)[C@H](CCC(N)=O)NC(=O)[C@@H](NC(=O)[C@H](CCC(N)=O)NC(=O)[C@H](CC(C)C)NC(=O)[C@@H](NC(=O)[C@H](CO)NC(=O)[C@H](CC(C)C)NC(=O)[C@H](Cc1c[nH]cn1)NC(=O)[C@H](CO)NC(=O)[C@H](C)NC(=O)CC[C@H](NC(=O)CCCCCCCCCCCCCCCCC(=O)O)C(=O)O)[C@@H](C)O)[C@@H](C)O)C(=O)N[C@@H](CC(C)C)C(=O)N1CCC[C@H]1C(=O)N1CCC[C@H]1C(=O)N[C@H](C(=O)N[C@@H](CC(=O)O)C(=O)N[C@H](C(=O)NCC(=O)N[C@@H](CO)C(=O)N[C@@H](CC(N)=O)C(=O)N[C@H](C(=O)N1CCC[C@H]1C(N)=O)[C@@H](C)O)C(C)C)[C@@H](C)O),1.91 pM,2.06 pM
